The target in this data set is T1, OmpR-His6 non-phosphorylated (Yersinia enterocolitica Ye9 (O:9)?) (UniProt P74982).
T1 sequence: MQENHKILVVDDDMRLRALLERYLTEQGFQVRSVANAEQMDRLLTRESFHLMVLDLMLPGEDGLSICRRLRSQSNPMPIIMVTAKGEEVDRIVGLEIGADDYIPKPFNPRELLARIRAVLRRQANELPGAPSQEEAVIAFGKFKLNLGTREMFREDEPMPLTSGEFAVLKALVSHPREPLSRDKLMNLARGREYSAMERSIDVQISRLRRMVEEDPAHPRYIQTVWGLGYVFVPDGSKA
The data set is described as follows: EMSA. The settings on record: Binding buffer, pH and temperature not given ([…].

This is an account of results in PMC4403819.

Turning to “TGGAATTCATTGCAGCCAGAGGCATTACCCCTCTGTTTTTGCTCATAGATAAACCTCAAGTGTCCGATTTTTAATTTAATTCAATGGATCACAAGCTTTAAAACCCATTGCTGCGTAAATTATATGTGCGTGCTATGGTACATACATTCGTGAATGTATGTAAATCGCACCCCCTCGAAAAAACAACGCTATGGCACGAAAAACCAAACAGCAAGGTACCCA (double strand) [acrR promoter fragment p222]”, the binding entry was “binds more weakly”.
